Here are results for six substances from publication PMC6778195.

Assay [1] deals with ICAM-1^D1D5-Fc (UniProt P05362). Put plainly: SPR; ICAM-1^D1D5-Fc immobilized to 850 RU on a CM5 chip precoupled with Protein A; IT4var13 DBLβ proteins 0.9 nM to 250 nM injected at 30 µL/min, 240 s association, 600 s dissociation; 20 mM Hepes, 300 mM NaCl, 0.005% Tween 20, pH 7.2; Biacore T200; global fit to a 2-state reaction model. For orientation: Surface plasmon resonance follows binding to a sensor surface in real time, without labels.

The target is the same in assay [2]. Put plainly: SPR. The conditions noted are these: for response: top curve of the dilution series (500 nM), read at end of injection (~300 s), parent: est. 240, read off a plot.

Sequence of ICAM-1^D1D5-Fc (P05362 28-480): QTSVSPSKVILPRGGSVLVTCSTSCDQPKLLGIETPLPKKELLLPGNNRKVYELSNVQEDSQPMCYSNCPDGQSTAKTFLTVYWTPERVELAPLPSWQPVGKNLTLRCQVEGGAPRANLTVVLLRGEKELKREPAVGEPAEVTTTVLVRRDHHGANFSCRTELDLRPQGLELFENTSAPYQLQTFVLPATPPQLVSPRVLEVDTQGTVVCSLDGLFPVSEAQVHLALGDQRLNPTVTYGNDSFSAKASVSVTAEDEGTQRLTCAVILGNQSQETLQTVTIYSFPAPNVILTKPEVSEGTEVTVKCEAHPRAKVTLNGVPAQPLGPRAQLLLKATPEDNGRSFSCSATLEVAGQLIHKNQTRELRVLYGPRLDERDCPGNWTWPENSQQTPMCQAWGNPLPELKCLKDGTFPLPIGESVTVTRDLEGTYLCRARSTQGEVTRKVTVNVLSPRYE

“IT4var13 DBLβ Q1103A (domain or fragment)” gave a fold decrease in affinity against wild type in assay [1] of 200 fold. In general, Kd refers to the equilibrium constant for the complex coming apart. A high value points to weaker binding. For “IT4var13 DBLβ domain (wild type) (domain or fragment)”, in assay [2], the Kd worked out at 1.22 nM. Consider J1a DBLβ domain (wild type) G1117A, for which the response in assay [2] came to 35 RU. Regarding J1a DBLβ domain (wild type) L1093D, the response in assay [2] came to 260 RU. Same read-out and setting: with J1a DBLβ domain (wild type) L1096D the figure was 140 RU; with J1a DBLβ domain (wild type) Y1097A, 25 RU.
